Experimental findings from article PMC9866218 (2023) are described below.

For assay [1], the target named is KCa3.1 (Homo sapiens, UniProt O15554). The assay can be described thus: whole-cell patch clamp (Hill fit of concentration-response).
Assay [2] addresses KCa2.2 (Homo sapiens, UniProt Q9H2S1). Described as above.
Assay [3] has as its target T1, KV1.2 (Homo sapiens, UniProt P16389). Described as above.
Assay [4] deals with T1, KV1.2. Nature of the assay: whole-cell patch clamp (koff/kon block kinetics). In general terms: Patch clamp records ionic current or voltage across a cell membrane.

The Kd is the constant that tells how readily two partners part at equilibrium. The low end stands for a tighter complex, the high end for a looser complex.

T1 sequence (P16389 whole entry): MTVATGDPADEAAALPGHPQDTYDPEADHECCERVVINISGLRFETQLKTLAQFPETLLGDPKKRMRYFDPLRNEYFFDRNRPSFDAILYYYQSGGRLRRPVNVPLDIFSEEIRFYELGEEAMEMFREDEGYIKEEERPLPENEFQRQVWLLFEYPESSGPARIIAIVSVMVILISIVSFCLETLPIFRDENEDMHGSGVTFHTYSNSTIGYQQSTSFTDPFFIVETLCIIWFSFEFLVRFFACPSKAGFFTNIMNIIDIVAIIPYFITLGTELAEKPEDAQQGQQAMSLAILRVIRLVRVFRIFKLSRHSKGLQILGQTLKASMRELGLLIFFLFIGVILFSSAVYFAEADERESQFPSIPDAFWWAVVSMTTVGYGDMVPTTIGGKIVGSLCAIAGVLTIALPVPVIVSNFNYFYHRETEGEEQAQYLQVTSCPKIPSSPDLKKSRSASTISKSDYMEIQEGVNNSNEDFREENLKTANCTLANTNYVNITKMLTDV
Sequence of KCa2.2 (Q9H2S1 whole entry): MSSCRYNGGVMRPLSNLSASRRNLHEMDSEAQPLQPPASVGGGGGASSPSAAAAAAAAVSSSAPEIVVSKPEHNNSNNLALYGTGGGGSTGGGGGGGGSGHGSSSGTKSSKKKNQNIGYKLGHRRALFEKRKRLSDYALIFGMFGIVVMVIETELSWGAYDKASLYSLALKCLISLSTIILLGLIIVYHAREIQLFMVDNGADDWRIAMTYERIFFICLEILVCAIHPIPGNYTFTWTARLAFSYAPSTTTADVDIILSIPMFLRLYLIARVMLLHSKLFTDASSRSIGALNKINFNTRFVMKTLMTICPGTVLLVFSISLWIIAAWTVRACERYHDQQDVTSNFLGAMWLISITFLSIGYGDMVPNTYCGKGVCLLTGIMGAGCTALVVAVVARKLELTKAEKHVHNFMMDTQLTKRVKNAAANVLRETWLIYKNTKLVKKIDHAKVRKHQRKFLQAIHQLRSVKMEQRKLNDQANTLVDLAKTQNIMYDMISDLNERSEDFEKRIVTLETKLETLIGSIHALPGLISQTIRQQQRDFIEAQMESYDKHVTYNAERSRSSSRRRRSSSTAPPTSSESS
Sequence of KCa3.1 (O15554 whole entry): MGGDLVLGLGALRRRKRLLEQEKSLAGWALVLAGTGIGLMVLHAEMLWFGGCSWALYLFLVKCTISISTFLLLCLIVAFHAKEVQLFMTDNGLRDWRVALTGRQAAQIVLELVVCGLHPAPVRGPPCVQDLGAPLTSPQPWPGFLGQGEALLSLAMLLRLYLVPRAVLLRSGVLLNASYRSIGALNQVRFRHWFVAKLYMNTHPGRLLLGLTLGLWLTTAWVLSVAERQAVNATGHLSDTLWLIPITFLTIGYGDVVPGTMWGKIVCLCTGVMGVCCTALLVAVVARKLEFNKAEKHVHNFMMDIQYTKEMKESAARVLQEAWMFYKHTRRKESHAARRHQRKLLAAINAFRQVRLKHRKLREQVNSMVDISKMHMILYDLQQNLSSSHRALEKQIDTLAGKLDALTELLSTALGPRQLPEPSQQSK

Take TFINHKCKSSSECLPACKAAIGRASGKCINSTCKCYY [Cm39 (α-KTx 4.8)]: the Kd in assay [1] came to 57.7 nM; in assay [2] it was 502 nM; in assay [3], 65 nM; in assay [4], 87.8 nM.
